Publication PMC7815493 (Redox Biology, 2021)
Each block holds one binder with its values, some of them ahead of it.

What was measured:
HMGB1:LK:CFP, P09429 = target: T1, HMGB1:LK:CFP, P09429; test: FRET or BRET; details: remark: other sources report otherwise
T1 chain: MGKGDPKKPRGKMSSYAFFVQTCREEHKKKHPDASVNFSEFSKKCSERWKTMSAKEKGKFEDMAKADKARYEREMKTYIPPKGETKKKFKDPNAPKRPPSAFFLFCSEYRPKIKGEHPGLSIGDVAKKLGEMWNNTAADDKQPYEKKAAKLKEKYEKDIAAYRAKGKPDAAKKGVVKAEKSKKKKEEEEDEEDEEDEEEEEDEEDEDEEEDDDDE

[1] = target: T2, Six His-tagged HMGB1 recombinant protein, P09429; test: MALDI-TOF MS; details: remark: other sources report otherwise
T2 chain: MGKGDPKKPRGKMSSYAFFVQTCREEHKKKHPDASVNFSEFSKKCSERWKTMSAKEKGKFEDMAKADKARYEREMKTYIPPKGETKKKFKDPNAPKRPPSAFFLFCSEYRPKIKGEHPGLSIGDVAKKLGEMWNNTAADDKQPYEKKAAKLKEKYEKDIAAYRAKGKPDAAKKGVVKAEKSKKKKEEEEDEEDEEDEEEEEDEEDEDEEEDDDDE

[2] = target: T2, Six His-tagged HMGB1 recombinant …; details: remark: other sources report otherwise
[3] = target: the molecule itself; test: non-reducing SDS-PAGE and immunoblot

FRET efficiency (HMGB1:LK:CFP, P09429): 17.1%
B1: YFP:LK:HMGB1, P09429 1-215 (natural protein)
chain: MGKGDPKKPRGKMSSYAFFVQTCREEHKKKHPDASVNFSEFSKKCSERWKTMSAKEKGKFEDMAKADKARYEREMKTYIPPKGETKKKFKDPNAPKRPPSAFFLFCSEYRPKIKGEHPGLSIGDVAKKLGEMWNNTAADDKQPYEKKAAKLKEKYEKDIAAYRAKGKPDAAKKGVVKAEKSKKKKEEEEDEEDEEDEEEEEDEEDEDEEEDDDDE

stoichiometry N [1]: 2
percent of molecules that are dimers [2]: 70%
B2: Six His-tagged HMGB1 recombinant protein, P09429 1-215 (natural protein)
chain: MGKGDPKKPRGKMSSYAFFVQTCREEHKKKHPDASVNFSEFSKKCSERWKTMSAKEKGKFEDMAKADKARYEREMKTYIPPKGETKKKFKDPNAPKRPPSAFFLFCSEYRPKIKGEHPGLSIGDVAKKLGEMWNNTAADDKQPYEKKAAKLKEKYEKDIAAYRAKGKPDAAKKGVVKAEKSKKKKEEEEDEEDEEDEEEEEDEEDEDEEEDDDDE

B3: HMGB1 box B (aa 88-162) (domain or fragment, UniProt P09429 88-162, looked up)
chain: KFKDPNAPKRPPSAFFLFCSEYRPKIKGEHPGLSIGDVAKKLGEMWNNTAADDKQPYEKKAAKLKEKYEKDIAAY
binding result [3]: binds
